Measurements as given in article PMC4151078, “Visualization of the physical and functional interaction between hMYH and hRad9 by Dronpa bimolecular fluorescence complementation” (BMC Molecular Biology, 2014).

Key:
[1] = target: T1, GST-hMYH (full-length, amino acids 1-547) (human, UniProt Q9UIF7-1 1-546); experiment: pull-down; GST or GST-hMYH fusion on glutathione-Sepharose 4B beads, purified His-hRad9 added; 50 mM Tris-HCl pH 7.5, 150 mM NaCl, 1 mM EDTA, 0.3 mM DTT, 0.1% NP-40; 3 h at 4°C; blot with anti-GST and anti-His; conditions: both partners purified
T1 construct: human MutY glycosylase homolog (hMYH), NM_012222; printed as full-length, amino acids 1-547; cloned into pGEX-4T1; also called GST-tagged hMYH wild type; source: bacterially expressed and purified
T1 sequence (looked up): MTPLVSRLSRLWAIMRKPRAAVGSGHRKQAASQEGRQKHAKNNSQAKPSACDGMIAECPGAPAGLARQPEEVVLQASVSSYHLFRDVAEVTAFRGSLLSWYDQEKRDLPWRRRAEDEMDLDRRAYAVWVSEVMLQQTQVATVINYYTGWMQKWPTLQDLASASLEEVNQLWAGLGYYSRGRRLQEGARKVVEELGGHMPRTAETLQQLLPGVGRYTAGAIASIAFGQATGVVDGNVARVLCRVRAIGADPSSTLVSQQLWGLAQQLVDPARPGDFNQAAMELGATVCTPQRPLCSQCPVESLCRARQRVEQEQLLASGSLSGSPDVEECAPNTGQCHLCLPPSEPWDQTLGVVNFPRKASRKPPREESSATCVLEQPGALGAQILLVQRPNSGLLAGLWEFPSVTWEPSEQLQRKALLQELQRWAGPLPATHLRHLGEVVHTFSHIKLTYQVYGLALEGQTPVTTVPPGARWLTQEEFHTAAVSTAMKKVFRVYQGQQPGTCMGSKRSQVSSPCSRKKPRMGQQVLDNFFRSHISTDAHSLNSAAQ

[2] = target: T2, GST-hMYH-ΔC (amino acids 1-487) (human, UniProt Q9UIF7-1 1-487); experiment: as above; conditions: both partners purified
T2 construct: cloned into pGEX-4T1; source: bacterially expressed and purified
T2 sequence (looked up): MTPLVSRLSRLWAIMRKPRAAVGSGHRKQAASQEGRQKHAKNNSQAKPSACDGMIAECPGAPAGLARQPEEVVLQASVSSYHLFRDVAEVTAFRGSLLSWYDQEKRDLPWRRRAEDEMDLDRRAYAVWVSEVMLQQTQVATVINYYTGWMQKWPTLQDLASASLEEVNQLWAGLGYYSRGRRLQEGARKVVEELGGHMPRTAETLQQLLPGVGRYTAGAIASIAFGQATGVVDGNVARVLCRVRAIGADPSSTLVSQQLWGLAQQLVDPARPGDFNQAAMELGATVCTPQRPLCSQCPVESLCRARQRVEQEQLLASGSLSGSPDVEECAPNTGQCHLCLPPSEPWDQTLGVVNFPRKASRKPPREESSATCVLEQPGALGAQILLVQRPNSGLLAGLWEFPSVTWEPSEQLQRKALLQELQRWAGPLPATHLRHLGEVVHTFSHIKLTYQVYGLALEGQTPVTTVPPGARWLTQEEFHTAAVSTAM

B1: His-hRad9 (natural protein, human, UniProt Q99638 1-391, looked up)
chain: MKCLVTGGNVKVLGKAVHSLSRIGDELYLEPLEDGLSLRTVNSSRSAYACFLFAPLFFQQYQAATPGQDLLRCKILMKSFLSVFRSLAMLEKTVEKCCISLNGRSSRLVVQLHCKFGVRKTHNLSFQDCESLQAVFDPASCPHMLRAPARVLGEAVLPFSPALAEVTLGIGRGRRVILRSYHEEEADSTAKAMVTEMCLGEEDFQQLQAQEGVAITFCLKEFRGLLSFAESANLNLSIHFDAPGRPAIFTIKDSLLDGHFVLATLSDTDSHSQDLGSPERHQPVPQLQAHSTPHPDDFANDDIDSYMIAMETTIGNEGSRVLPSISLSPGPQPPKSPGPHSEEEDEAEPSTVPGTPPPKKFRSLFFGSILAPVRSPQGPSPVLAEDSEGEG
notes: human Rad9 (hRad9), NM_004584; also called purified His-hRad9; His-purified hRad9 protein; source: bacterially expressed and purified
- binding result [1]: binds
- binding result [2]: binds
